Laboratory results reported in US20020115184.

Experiments:
B. subtilis YqxM protein = target: T1, B. subtilis YqxM protein
T1 chain: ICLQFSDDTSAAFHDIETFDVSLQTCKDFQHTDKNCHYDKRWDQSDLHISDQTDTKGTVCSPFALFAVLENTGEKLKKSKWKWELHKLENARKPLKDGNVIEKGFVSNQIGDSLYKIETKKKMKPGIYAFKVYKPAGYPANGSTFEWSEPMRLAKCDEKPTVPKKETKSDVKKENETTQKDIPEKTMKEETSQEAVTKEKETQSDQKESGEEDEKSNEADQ

[1] = target: T2, immature TasA protein (pro-TasA), 34 kDa
T2 chain: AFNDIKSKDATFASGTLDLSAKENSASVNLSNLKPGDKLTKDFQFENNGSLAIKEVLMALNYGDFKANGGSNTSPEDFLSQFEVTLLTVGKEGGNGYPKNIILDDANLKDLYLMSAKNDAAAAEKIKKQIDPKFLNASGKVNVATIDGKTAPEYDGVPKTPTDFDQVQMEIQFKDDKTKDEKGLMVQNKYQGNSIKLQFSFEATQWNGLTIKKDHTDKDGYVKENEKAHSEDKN

B1: B. subtilis SipW protein (signal peptidase) (protein)
chain: MKLISNILYVIIFTLIIVLTLVVISTRSSGGEPAVFGYTLKSVLSGSMEPEFNTGSLILVKEITDVKELQKGDVITFMQDANTAVTHRIVDITKQGDHLLFKTKGDNNAAADSAPVSDENVRAQYTGFQLPYAGYMLHFASQPIGTAVLLIVPGVMLLVYAFVTISSAIREIERKTKALETDTKDSTMST
B. subtilis YqxM protein
  Western blot of YqxM in concentrated E. coli culture supernatants: when both YqxM and SipW were produced, YqxM was abundant in the culture supernatant and migrated as a smaller 31 kD species
  YqxM associated with the spore, with sipW deleted or under pSpac control: deletion of sipW resulted in no measurable amount of YqxM associated with the spore
[1]
  Western blot for mature TasA in a strain where the neo promoter drives sipW and TasA and YqxM is disrupted: A band corresponding to mature TasA was detected in extracts of spores and in both the culture supernatants and lysates of sporangia and vegetative cells. No protein of larger molecular weight that could correspond to immature TasA was detected.
  Western blot of TasA size in sipW deletion strains (34 kDa immature against 31 kDa mature): a 34 kDa band was detected in both sporangial lysates and vegetative cells
